Data taken from patent US20220339270A1 (published 2022).

Assays:
[1] = target: T1, recombinant tau mutant protein tau441-T212A+T217A (phospho-Tau variant) (human, UniProt P10636 1-758, phosphorylated (phospho-Tau variant; kinase DYRK1A by the context)); test: PT3 ELISA with phospho-Tau variants
T1 construct: not shown: his tag (detected with anti-his antibody)

[2] = target: T2, recombinant tau mutant protein tau441-T217A+T231A (phospho-Tau variant) (human, UniProt P10636 1-758, phosphorylated (phospho-Tau variant; kinase DYRK1A by the context)); test: PT3 ELISA with phospho-Tau variants
T2 construct: not shown: his tag (detected with anti-his antibody)
T2 sequence (P10636 other isoform, or with tags, fused parts or gaps T217A T231A T217A T231A): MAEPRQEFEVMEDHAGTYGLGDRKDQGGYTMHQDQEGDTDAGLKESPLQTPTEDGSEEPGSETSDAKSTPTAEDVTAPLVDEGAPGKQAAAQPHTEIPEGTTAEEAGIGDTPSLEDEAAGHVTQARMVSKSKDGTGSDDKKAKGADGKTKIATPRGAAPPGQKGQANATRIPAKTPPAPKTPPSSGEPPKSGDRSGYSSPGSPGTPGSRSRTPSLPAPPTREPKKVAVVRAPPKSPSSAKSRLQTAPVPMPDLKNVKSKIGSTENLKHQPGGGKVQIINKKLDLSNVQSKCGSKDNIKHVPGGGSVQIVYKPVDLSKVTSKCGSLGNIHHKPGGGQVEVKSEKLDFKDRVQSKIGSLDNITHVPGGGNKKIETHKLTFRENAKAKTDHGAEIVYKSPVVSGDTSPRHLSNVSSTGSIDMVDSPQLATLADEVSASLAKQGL

[3] = target: T3, recombinant tau mutant protein tau441-T212A+S214A (phospho-Tau variant) (human, UniProt P10636 1-758, phosphorylated (phospho-Tau variant; kinase DYRK1A by the context)); test: PT3 ELISA with phospho-Tau variants
T3 construct: not shown: his tag (detected with anti-his antibody)
T3 sequence (P10636 other isoform, or with tags, fused parts or gaps T212A S214A T212A S214A): as the sequence (P10636 other isoform, or with tags, fused parts or gaps T217A T231A T217A T231A) above, with T212A, S214A, A217T, A231T counted along it

[4] = target: T4, recombinant tau mutant protein tau441-T212A+T217A+T231A (phospho-Tau variant) (human, UniProt P10636 1-758, phosphorylated (phospho-Tau variant; kinase DYRK1A by the context)); test: PT3 ELISA with phospho-Tau variants
T4 construct: not shown: his tag (detected with anti-his antibody)
T4 sequence (P10636 other isoform, or with tags, fused parts or gaps T212A T217A T231A T212A T217A T231A): as the sequence (P10636 other isoform, or with tags, fused parts or gaps T217A T231A T217A T231A) above, with T212A counted along it

[5] = target: T5, recombinant tau mutant protein tau441-T212A+T231A (phospho-Tau variant) (human, UniProt P10636 1-758, phosphorylated (phospho-Tau variant; kinase DYRK1A by the context)); test: PT3 ELISA with phospho-Tau variants
T5 construct: not shown: his tag (detected with anti-his antibody)

[6] = target: T6, extracellular tau in the form of paired helical filaments (ePHF) (UniProt P10636-8 1-441, limits assumed); test: method not stated
T6 construct: Immobilised on 96-well plates for the ePHF tau ELISA; also called ePHF tau; PHF tau

[7] = target: T7, Tau441-T212A + T217A + T231A, phosphorylated in vitro by DYRK1A (human, UniProt P10636 1-758, phosphorylated in vitro by DYRK1A; occupied sites not determined individually); test: PT3 ELISA, 210 ng/mL DYRK1A-phosphorylated tau variant
T7 construct: His-tagged
T7 sequence (P10636 other isoform, or with tags, fused parts or gaps T212A T217A T231A T212A T217A T231A limits assumed): as the sequence (P10636 other isoform, or with tags, fused parts or gaps T217A T231A T217A T231A) above, with T212A counted along it

[8] = target: T8, Tau441-T212A + T231A, phosphorylated in vitro by DYRK1A (human, UniProt P10636 1-758, phosphorylated in vitro by DYRK1A; occupied sites not determined individually); test: as above
T8 construct: His-tagged

[9] = target: T9, Tau441-T212A + T217A, phosphorylated in vitro by DYRK1A (human, UniProt P10636 1-758, phosphorylated in vitro by DYRK1A; occupied sites not determined individually); test: as above
T9 construct: His-tagged

[10] = target: T10, Tau441-T217A + T231A, phosphorylated in vitro by DYRK1A (human, UniProt P10636 1-758, phosphorylated in vitro by DYRK1A; occupied sites not determined individually); test: as above
T10 construct: His-tagged
T10 sequence (P10636 other isoform, or with tags, fused parts or gaps T217A T231A T217A T231A limits assumed): as the sequence (P10636 other isoform, or with tags, fused parts or gaps T217A T231A T217A T231A) above

[11] = target: T11, Tau441-T212A + S214A, phosphorylated in vitro by DYRK1A (human, UniProt P10636 1-758, phosphorylated in vitro by DYRK1A; occupied sites not determined individually); test: as above
T11 construct: His-tagged
T11 sequence (P10636 other isoform, or with tags, fused parts or gaps T212A S214A T212A S214A limits assumed): as the sequence (P10636 other isoform, or with tags, fused parts or gaps T217A T231A T217A T231A) above, with T212A, S214A, A217T, A231T counted along it

[12] = target: T12, Wild-type Tau441, phosphorylated in vitro by DYRK1A (human, UniProt P10636 1-758); test: as above
T12 construct: Recombinant protein detected with an anti-his antibody; also called phospho-tau

Tau441_T202A = target: T13, Tau441_T202A (human, UniProt P10636 2-758); test: ELISA, PT3 immobilized, tau protein applied at 333 ng/mL
T13 construct: not phosphorylated; printed T202A, the text gives S202; also called S202 mutant; not shown: his tag added

Phospho_Tau441_S422A = target: T14, Phospho_Tau441_S422A (human, UniProt P10636 2-758, phosphorylated in vitro by DYRK1A; sites not determined); test: as above
T14 construct: not shown: his tag added

Phospho_Tau441_T181A = target: T15, Phospho_Tau441_T181A (human, UniProt P10636 2-758, phosphorylated in vitro by DYRK1A; sites not determined); test: as above
T15 construct: not shown: his tag added

Tau441_T205A = target: T16, Tau441_T205A (human, UniProt P10636 2-758); test: as above
T16 construct: not phosphorylated; not shown: his tag added

Phospho_Tau441_T202A = target: T17, Phospho_Tau441_T202A (human, UniProt P10636 2-758, phosphorylated in vitro by DYRK1A; sites not determined); test: as above
T17 construct: the list of mutated sites gives S202; also called S202 mutant; not shown: his tag added

Tau441_S400A = target: T18, Tau441_S400A (human, UniProt P10636 2-758); test: as above
T18 construct: not phosphorylated; not shown: his tag added

Tau441_T231A = target: T19, Tau441_T231A (human, UniProt P10636 2-758); test: as above
T19 construct: not phosphorylated; not shown: his tag added

Tau441_S199A = target: T20, Tau441_S199A (human, UniProt P10636 2-758); test: as above
T20 construct: not phosphorylated; not shown: his tag added

Phospho_Tau441_S404A = target: T21, Phospho_Tau441_S404A (human, UniProt P10636 2-758, phosphorylated in vitro by DYRK1A; sites not determined); test: as above
T21 construct: not shown: his tag added

Phospho_Tau441_S396A = target: T22, Phospho_Tau441_S396A (human, UniProt P10636 2-758, phosphorylated in vitro by DYRK1A; sites not determined); test: as above
T22 construct: not shown: his tag added
T22 sequence (P10636 other isoform, or with tags, fused parts or gaps S396A S396A): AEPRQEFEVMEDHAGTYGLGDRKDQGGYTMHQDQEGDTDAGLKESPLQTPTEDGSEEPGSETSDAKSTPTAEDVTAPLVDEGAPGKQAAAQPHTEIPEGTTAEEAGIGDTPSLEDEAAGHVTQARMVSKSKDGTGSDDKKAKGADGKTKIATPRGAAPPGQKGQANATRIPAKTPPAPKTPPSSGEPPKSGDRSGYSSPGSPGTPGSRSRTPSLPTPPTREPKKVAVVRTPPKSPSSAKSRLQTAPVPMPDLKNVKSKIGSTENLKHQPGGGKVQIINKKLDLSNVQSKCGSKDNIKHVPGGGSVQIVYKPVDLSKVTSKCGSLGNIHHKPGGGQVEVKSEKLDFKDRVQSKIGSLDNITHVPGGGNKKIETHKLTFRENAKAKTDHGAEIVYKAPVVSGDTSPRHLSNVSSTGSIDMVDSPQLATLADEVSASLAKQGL

Phospho_Tau441_T231A = target: T23, Phospho_Tau441_T231A (human, UniProt P10636 2-758, phosphorylated in vitro by DYRK1A; sites not determined); test: as above
T23 construct: not shown: his tag added

Tau441_T217A = target: T24, Tau441_T217A (human, UniProt P10636 2-758); test: as above
T24 construct: not phosphorylated; not shown: his tag added

Phospho_Tau441_T205A = target: T25, Phospho_Tau441_T205A (human, UniProt P10636 2-758, phosphorylated in vitro by DYRK1A; sites not determined); test: as above
T25 construct: not shown: his tag added

Phospho_Tau441_S199A = target: T26, Phospho_Tau441_S199A (human, UniProt P10636 2-758, phosphorylated in vitro by DYRK1A; sites not determined); test: as above
T26 construct: not shown: his tag added

Phospho_Tau441_T217A = target: T27, Phospho_Tau441_T217A (human, UniProt P10636 2-758, phosphorylated in vitro by DYRK1A; sites not determined); test: as above
T27 construct: not shown: his tag added
T27 sequence (P10636 other isoform, or with tags, fused parts or gaps T217A T217A): as the sequence (P10636 other isoform, or with tags, fused parts or gaps S396A S396A) above, with T216A, A395S counted along it

Phospho_Tau441_S400A = target: T28, Phospho_Tau441_S400A (human, UniProt P10636 2-758, phosphorylated in vitro by DYRK1A; sites not determined); test: as above
T28 construct: not shown: his tag added

Tau441_S396A = target: T29, Tau441_S396A (human, UniProt P10636 2-758); test: as above
T29 construct: not phosphorylated; not shown: his tag added
T29 sequence (P10636 other isoform, or with tags, fused parts or gaps S396A S396A): as the sequence (P10636 other isoform, or with tags, fused parts or gaps S396A S396A) above

Tau441_S404A = target: T30, Tau441_S404A (human, UniProt P10636 2-758); test: as above
T30 construct: not phosphorylated; not shown: his tag added

Phospho_Tau441_T212A = target: T31, Phospho_Tau441_T212A (human, UniProt P10636 2-758, phosphorylated in vitro by DYRK1A; sites not determined); test: as above
T31 construct: not shown: his tag added
T31 sequence (P10636 other isoform, or with tags, fused parts or gaps T212A T212A): as the sequence (P10636 other isoform, or with tags, fused parts or gaps S396A S396A) above, with T211A, A395S counted along it

Tau441_T212A = target: T32, Tau441_T212A (human, UniProt P10636 2-758); test: as above
T32 construct: not phosphorylated; not shown: his tag added
T32 sequence (P10636 other isoform, or with tags, fused parts or gaps T212A T212A): as the sequence (P10636 other isoform, or with tags, fused parts or gaps S396A S396A) above, with T211A, A395S counted along it

Tau441_T181A = target: T33, Tau441_T181A (human, UniProt P10636 2-758); test: as above
T33 construct: not phosphorylated; not shown: his tag added

B1: anti-tau antibody PT3 (antibody, V domains shown)
VH: EVKLVESGGDLVKPGGSLKLSCAASGFTFSSYAMSWVRQNPEKRLEWVASISKGGNTYYPNSVKGRFTISRDNARNILYLQMSSLRSEDTALYYCARGWGDYGWFAYWGQVTLVTVSA
VL: DIKMTQSPSSMYASLGERVTITCKASQDINRYLNWFQQKPGKSPKTLIYRANRLLDGVPSRFSGSGSGQDYSLTISSLDYEDMGIYYCLQYDEFPLTFGDGTKLELK
notes: also called purified PT3 antibody
[1]
  binding result: no binding (tested: 210 ng/mL)
[2]
  binding result: no binding (tested: 210 ng/mL)
[3]
  binding result: no binding (tested: 210 ng/mL)
[4]
  binding result: no binding (tested: 210 ng/mL)
[5]
  binding result: no binding (tested: 210 ng/mL)
[6]
  Kd: 0.018 nM

B2: anti-tau antibody PT3 (antibody, V domains shown)
VH: B1 VH
VL: B1 VL
[7]
  OD450-570: 0 OD
[8]
  OD450-570: 0.1 OD
[9]
  OD450-570: 0 OD
[10]
  OD450-570: 0.1 OD
[11]
  OD450-570: 0.1 OD
[12]
  OD450-570: 1.7 OD

B3: anti-tau antibody PT3 (antibody, V domains shown)
VH: B1 VH
VL: B1 VL
Tau441_T202A
  OD450-570: 0
Phospho_Tau441_S422A
  OD450-570: 0.3
Phospho_Tau441_T181A
  OD450-570: 0.4
Tau441_T205A
  OD450-570: 0
Phospho_Tau441_T202A
  OD450-570: 0.6
Tau441_S400A
  OD450-570: 0
Tau441_T231A
  OD450-570: 0
Tau441_S199A
  OD450-570: 0
Phospho_Tau441_S404A
  OD450-570: 0.6
Phospho_Tau441_S396A
  OD450-570: 0.5
Phospho_Tau441_T231A
  OD450-570: 0.3
Tau441_T217A
  OD450-570: 0
Phospho_Tau441_T205A
  OD450-570: 0.4
Phospho_Tau441_S199A
  OD450-570: 0.7
Phospho_Tau441_T217A
  OD450-570: 0
Phospho_Tau441_S400A
  OD450-570: 0.3
Tau441_S396A
  OD450-570: 0
Tau441_S404A
  OD450-570: 0
Phospho_Tau441_T212A
  OD450-570: 0
Tau441_T212A
  OD450-570: 0
Tau441_T181A
  OD450-570: 0
